These results are taken from patent US20250090663A1 (MYELOID THERAPEUTICS, published 2025).

For experiment [1], the target named is T1, IL13RA2 Protein, Human, Recombinant (ECD)-His tag (human, UniProt Q14627 27-343).
T1 construct: extracellular domain; also called human recombinant protein extracellular domain; human IL13Ra2-His6
T1 sequence: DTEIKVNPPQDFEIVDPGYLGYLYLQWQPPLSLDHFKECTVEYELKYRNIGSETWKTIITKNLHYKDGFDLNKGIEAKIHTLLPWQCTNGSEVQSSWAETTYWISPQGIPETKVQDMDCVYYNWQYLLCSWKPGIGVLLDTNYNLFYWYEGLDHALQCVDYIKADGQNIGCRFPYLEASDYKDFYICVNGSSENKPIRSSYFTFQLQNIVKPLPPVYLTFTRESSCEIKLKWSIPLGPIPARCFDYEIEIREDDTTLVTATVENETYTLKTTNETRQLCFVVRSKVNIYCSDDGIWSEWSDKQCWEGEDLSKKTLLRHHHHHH
The experiment in a line: BLI; biotinylated VHH captured on streptavidin biosensor, antigen 1 uM in solution. As to the method:
(§1) Binding Affinity for the VH domains with IL13Rα2 are calculated as follows: Biotinylated VHHs were individually captured on streptavidin biosensors. VHH-captured biosensors were dipped in wells containing antigen and the binding response was measured. Biosensors were later dipped in buffer wells to observe the dissociation of bound antigen from captured VHH. (Schematic representation of the process depicted in FIG. 26, upper left corner). In this case, the IL13RA2 protein used was human recombinant protein extracellular domain; Rhesus macaque IL13R alpha 2 protein with His tag or mouse recombinant His tagged protein or irrelevant protein His tagged were used as controls.
A general note: In BLI a coated tip is dipped into the sample, and binding shifts an interference pattern.

Experiment [2] has as its target T2, IL13RA2 Protein, Rhesus macaque, His tag (Rhesus macaque, UniProt A0A5F8A9D9 27-343).
T2 construct: the summary sentence says cynomolgous; also called Rhesus macaque IL13R alpha 2 protein with His tag; cynomolgous IL 13RA2 (as the text calls it); not shown: His tag
T2 sequence: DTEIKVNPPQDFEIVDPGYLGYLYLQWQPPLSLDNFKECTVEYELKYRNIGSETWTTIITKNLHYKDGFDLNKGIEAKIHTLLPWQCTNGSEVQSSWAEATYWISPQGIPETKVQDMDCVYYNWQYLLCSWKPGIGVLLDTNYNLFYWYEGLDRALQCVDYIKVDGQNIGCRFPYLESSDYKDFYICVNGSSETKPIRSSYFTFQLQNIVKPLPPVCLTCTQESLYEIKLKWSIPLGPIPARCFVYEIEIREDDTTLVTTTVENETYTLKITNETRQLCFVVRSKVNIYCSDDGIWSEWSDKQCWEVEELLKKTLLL
Described as above. Here is the method:
as §1

For experiment [3], the target named is T3, IL13RA2 Protein, mouse Recombinant- His tag (mouse, UniProt O88786 22-334, limits assumed).
T3 construct: also called mouse recombinant His tagged protein; not shown: His tag
T3 sequence (looked up): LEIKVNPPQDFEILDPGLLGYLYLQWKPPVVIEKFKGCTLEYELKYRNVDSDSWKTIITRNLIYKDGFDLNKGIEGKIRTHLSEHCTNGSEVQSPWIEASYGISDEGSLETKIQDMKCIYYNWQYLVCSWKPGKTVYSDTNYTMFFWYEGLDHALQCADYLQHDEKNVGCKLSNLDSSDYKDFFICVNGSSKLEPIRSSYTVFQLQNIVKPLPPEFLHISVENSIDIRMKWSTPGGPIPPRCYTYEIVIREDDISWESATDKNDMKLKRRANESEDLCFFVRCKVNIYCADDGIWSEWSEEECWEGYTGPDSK
The experiment is described as above. Here is the method:
as §1

In another experiment the target is T4, Mouse CD70 mFc (mouse, UniProt O55237 45-195).
T4 construct: not shown: mFc
T4 sequence (looked up): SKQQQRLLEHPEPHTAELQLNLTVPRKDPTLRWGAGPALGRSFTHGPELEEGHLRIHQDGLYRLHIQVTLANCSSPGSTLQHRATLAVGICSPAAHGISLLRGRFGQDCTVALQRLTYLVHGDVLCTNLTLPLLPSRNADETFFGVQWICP
As to the kind of experiment: BLI, single point; His-tagged VHH captured on HIS1K biosensor, antigen 1 uM in solution. Here is the method: (§2) Next the polypeptides were characterized for CD70 binding kinetics, e.g. by affinity measurements. An affinity measurement method used in this study is illustrated in FIG. 1A, left bottom graphic image. Briefly, His-tagged VHH constructs were individually captured on HIS1K biosensors. VHH-captured biosensors were dipped in wells containing antigen and binding responses were measured. Biosensors were later dipped in buffer wells to observe the dissociation of bound antigen from the VHHs. Biosensors were regenerated and similar binding kinetic assays were performed for subsequent antigens. Single point KD analysis using BioLayer interferometry with a soluble VHH format was undertaken.

Another experiment addresses T5, Human CD70 mFc (human, UniProt P32970 39-193).
T5 construct: not shown: mFc
T5 sequence (looked up): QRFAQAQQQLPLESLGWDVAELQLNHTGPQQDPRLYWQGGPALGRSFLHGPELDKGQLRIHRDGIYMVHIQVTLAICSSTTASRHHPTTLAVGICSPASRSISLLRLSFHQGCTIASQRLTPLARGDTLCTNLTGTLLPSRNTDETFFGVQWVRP
The description is as above. As to the method: as §2

In experiment [4] the target is T2, IL13RA2 Protein, Rhesus macaque, His tag. The experiment in a line: BLI; summary of Tables 9A-9C. Here is the method: as §1
Experiment [5] concerns the target T3, IL13RA2 Protein, mouse Recombinant- His …. The experiment in a line: BLI; summary of Tables 9A-9C. As to the method: as §1

Changes are numbered by the printed parent chain.

B1: IL13Ra2_2TIG4_f3 (VHH)
VHH: QVQLQESGGGLVQPGGSLRLSCAASGRTYGMGWFRQAPGKEREFVAVGVWSSGNTYYADFARGRFTISRDNAKNTVYLQMDSLKPEDTAVYYCAAPRYSSYTTYHAAYDYWGPGTQVTVSS
modifications: biotinylated (site not stated)
notes: Expressed in E. coli and 6xHIS purified; also called IL13Ra2_2TIG4_f3-Biotin
In the case of B1, in experiment [1], the “Binding Response” value stood at 0.72 nm, the dissociation constant (Kd) was determined as 5.02 nM, the koff worked out at 0.000697 s⁻¹ and the t½ is 17 min. Besides, in experiment [2], the “Binding Response” value was 1.17 nm, the Kd is 3.62 nM, the dissociation rate constant (koff) worked out at 0.000388 s⁻¹ and the kon is 107000 M⁻¹ s⁻¹. Also, in experiment [2], the t½ turned out to be 30 min. Further, in experiment [3], the “Binding Response” value is -0.02 nm.

B2: VH52f3 (VHH)
VHH: QVQLQESGGGLVQPGGSLRLSCEVSGSIFSINRMAWYRQVPEKEREMVAQITYGDTIKYYGSAKGRFTISRDSAKNAVYLQMNSLKPEDTAVYRCNIVGVLTTGHYEDSFWGQGTQVTVPS
modifications: biotinylated (site not stated)
notes: Expressed in E. coli and 6xHIS purified; also called VH52f3 Biotin; Anti-IL13Rα2 VH52
Regarding B2, in experiment [1], the “Binding Response” value is 0.87 nm, the dissociation constant Kd was at most 0.806 nM, the koff is at most 0.0001 s⁻¹ and the t½ is at least 116 min. Besides, in experiment [2], the “Binding Response” value was 1.13 nm, the dissociation constant (Kd) is at most 1.49 nM, the koff is at most 0.0001 s⁻¹ and the on-rate (kon) was found to be 67000 M⁻¹ s⁻¹. In addition, the t½ in experiment [2] was at least 116 min. For the same molecule, in experiment [3], the “Binding Response” value was -0.02 nm.

B3: VH53f3 (VHH)
VHH: B2 VHH with F29S, E42G, R71K, D108N, P120S
modifications: biotinylated (site not stated)
notes: Expressed in E. coli and 6xHIS purified; also called VH53f3 Biotin; Anti-IL13Rα2 VH53
As to B3, in experiment [1], the “Binding Response” value stood at 1.04 nm, the Kd is 0.89 nM, the off-rate constant (koff) came out at 0.000118 s⁻¹ and the t½ was found to be 98 min. Further, in experiment [2], the “Binding Response” value turned out to be 1.35 nm, the Kd is at most 1.42 nM, the off-rate (koff) is at most 0.0001 s⁻¹ and the association rate constant (kon) was determined as 70200 M⁻¹ s⁻¹. In addition, the t½ in experiment [2] is at least 116 min. Moreover, the “Binding Response” value in experiment [3] is -0.01 nm.

B4: Anti-CD70 VHH clone 3CEK186 (VHH)
VHH: QVQLQESGGGLVQTGGSLRLACTASGFTFDDYAIAWFRQAPGKEREFVAAISWSGGTTHYADSVKGRFTISRDNAKNTLYLQMSSLKPEDTAVYFCAKSLRSSPSSRWFGSRGQGTQVTVSS
notes: Soluble His-tagged VHH monomer captured on HIS1K biosensors; also called C1; C1 (WT)
B4: the “Binding Response” value with Mouse CD70 mFc is 0.01 nm.

B5: VH36f1 (VHH)
VHH: QVQLQESGGGSVQPGGSLRLSCAASGINISSDVMEWFRQGPGEQRELVAHITTNSRTEYADFVKGRFTISRANAKNTLYLQMNGLKPEDTALYYCALRRGGRILWGQGTQVTVSS
modifications: biotinylated (site not stated)
notes: Expressed in E. coli and 6xHIS purified; also called VH36f1 Biotin; Anti-IL13Rα2 VH36
Turning to B5, in experiment [1], the “Binding Response” value came out at 0.67 nm, the Kd was found to be 1.3 nM, the off-rate (koff) was found to be 0.000133 s⁻¹ and the t½ was found to be 87 min. In experiment [2], the “Binding Response” value amounted to 1.02 nm, the Kd was at most 1.44 nM, the koff was at most 0.0001 s⁻¹ and the on-rate constant (kon) stood at 69300 M⁻¹ s⁻¹. In experiment [2], this molecule registered a t½ of at least 116 min. Also, the “Binding Response” value in experiment [3] is -0.01 nm.

B6: Anti-CD70 VHH, 3HCS92 (VHH)
VHH: QVQLQESGGGLVQAGGSLRLSCAAPRSIFSINAMGWYRQAPGKQRELVAAITSGGSPTYADSVKGRFTISRDNAKNTVYLQMNSLKAEDTAVYYCATGPYGLDNALDAWGQGTQVTVSS
notes: Soluble His-tagged VHH monomer captured on HIS1K biosensors; also called H1; H1 (WT)
As to B6, in the experiment with Human CD70 mFc, the “Binding Response” value worked out at 0.87 nm, the Kd came out at 5.29 nM, the off-rate constant (koff) amounted to 0.000377 s⁻¹ and the kon came out at 71300 M⁻¹ s⁻¹. In the experiment with Human CD70 mFc, this molecule had a t½ of 31 min. Besides, in the experiment with Mouse CD70 mFc, the “Binding Response” value came out at 0.03 nm, the Kd amounted to 334 nM, the koff came out at 0.000427 s⁻¹ and the kon came out at 1280 M⁻¹ s⁻¹. Besides, the t½ in the experiment with Mouse CD70 mFc is 27 min.

B7: VH43f2 (VHH)
VHH: QVQLQESGGGLVQPGGSLRLSCTASGSIRGIGYMAWGRQGPGKPRELIATINSAGDTNYAESVKGRFTVSRDNAENTLYLQMNNLKSEDTAVYYCNARPGLQSYWGQGTQVTVSS
modifications: biotinylated (site not stated)
notes: Expressed in E. coli and 6xHIS purified; also called VH43f2-Biotin; Anti-IL13Rα2 VH43
As to B7, in experiment [1], the “Binding Response” value stood at 0.92 nm, the equilibrium dissociation constant (Kd) stood at 4.65 nM, the koff was 0.000941 s⁻¹ and the t½ worked out at 12.3 min. In experiment [2], the “Binding Response” value worked out at 0.96 nm, the Kd stood at 27.1 nM, the koff worked out at 0.00164 s⁻¹ and the kon was found to be 60500 M⁻¹ s⁻¹. This molecule also registered a t½ in experiment [2] of 7.04 min. In experiment [3], the “Binding Response” value is -0.04 nm.

B8: VH57f5 (VHH)
VHH: QVQLQESGGGLVQPGGSLRLSCAASGSIFNTNGMGWYRQAPGKQRERVAGISSGGNTVYAASVEGRFTISRDNAKNTGYLQMNNLKPEDTAVYYCRVAGRQDDYWGQGTQVTVSS
modifications: biotinylated (site not stated)
notes: Expressed in E. coli and 6xHIS purified; also called VH57f5 Biotin; Anti-IL13Rα2 VH57
Consider B8, for which the “fold decrease in affinity compared to human counterpart” value in experiment [4] was around 2 fold. Moreover, in experiment [5], the “fold decrease in affinity compared to human counterpart” value is around 2 fold. Moreover, in experiment [1], the “Binding Response” value was found to be 1.36 nm, the equilibrium dissociation constant (Kd) worked out at 1.84 nM, the off-rate constant (koff) stood at 0.000397 s⁻¹ and the t½ amounted to 29 min. Also, in experiment [2], the “Binding Response” value came to 0.93 nm; the affinity, expressed as Kd, was 112 nM; the off-rate constant (koff) worked out at 0.00485 s⁻¹; the kon was 41700 M⁻¹ s⁻¹. For the same molecule, the t½ in experiment [2] came out at 2.4 min. In experiment [3], the “Binding Response” value worked out at 1.17 nm, the Kd stood at 33.7 nM, the dissociation rate constant (koff) was found to be 0.00485 s⁻¹ and the kon is 140000 M⁻¹ s⁻¹. The t½ in experiment [3] was determined as 2.46 min.

One may read the Kd as the equilibrium constant for the complex coming apart. One may read the koff as a measure of how fast the partners let go of each other. For orientation: t½ means the time needed for the level to fall by half in the phase considered. In general, kon refers to a measure of how fast the partners come together.
